Assays:
[1] = biological target: recombinant full length SARS-CoV-2 spike protein (SARS-CoV-2) (UniProt P0DTC2)
[2] = biological target: FcγR on K562 cells (reported to express RNA for FcγRIIa and IIIa/b)

Substance | EC50 (read off the curve) [1] | EC50 (read off the curve) [2]
ACE2-CR3022 scFv-Fc (from UniProt Q9BYF1 18-740) (Fc fusion) | 0.09 nM | 
CR3022 scFv-ACE2-Fc (from UniProt Q9BYF1 18-740) (Fc fusion) | 0.06 nM | 
Inactive ACE2 (HH:NN) (18-740)-Fc (Fc fusion) |  | 40 nM
